± gives the uncertainty stated by the source.
Experiment: protein stability index of a GFP-peptide fusion (yeast GPS) (PSI 1-4); higher = more stable; sorted into four equal gates, so the index is relative within each strain
Procedure, shortened: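 The protein stability index of a peptide was calculated by multiplying its read frequency in each gate by that gate's number and adding the products. The peptides were tiled 17-residue stretches of yeast proteins, fused downstream of GFP on a Cherry-expressing plasmid and carried in yeast as a pooled library. Mid-log cultures in leucine-free medium were sorted into four equal gates by GFP/Cherry ratio, and each gate's plasmids were PCR-amplified and Illumina-sequenced.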

Row | Sequence | protein stability index (doa10∆) | protein stability index (pdr5∆) | protein stability index (san1∆) | protein stability index (ubr1∆)
1 | WLVVPTIYNLQHHVTDA [YML031W/NDC1] | 1.38 ± 0.03 | 1.62 ± 0.033 | 1.46 ± 0.05 | 1.37 ± 0.027
2 | WNLEKWREIIEKVRDYE [IRR1] | 3.06 ± 0.12 | 3.41 ± 0.15 | 3.3 ± 0.054 | 3.19 ± 0.066
3 | WQELARSTDEFNGAQLK [RPT5] | 2.52 ± 0.16 | 2.73 ± 0.2 | 2.65 ± 0.24 | 2.29 ± 0.17
4 | WRKSDRELTKNILWRIA [SIR4] | 2.91 ± 0.12 | 1.82 ± 0.088 | 2.09 ± 0.25 | 2.54 ± 0.089
5 | WRLLFIDKFIMVVQKYK [GRR1] | 2.07 ± 0.054 | 1.79 ± 0.052 | 1.66 ± 0.083 | 2.38 ± 0.043
6 | WRVREASTSALLQLIQS [ECM29] | 1.16 ± 0.13 | 1.41 ± 0.12 | 1.04 ± 0.22 | –
7 | WTDPNLKSSLADVLSIL [RPN1] | 2.94 ± 0.15 | 2.98 ± 0.14 | 2.94 ± 0.096 | 2.65 ± 0.068
8 | WTIPHKKWNDLKNKNFK [SIR2] | 3.22 ± 0.14 | 3.38 ± 0.13 | 3.29 ± 0.11 | 3.23 ± 0.073
9 | WTVLFRKHHKKGITEEV [RPL24A] | 3.08 ± 0.12 | 2.1 ± 0.13 | 1.82 ± 0.15 | 2.64 ± 0.079
10 | WVAPQESSHEQEEFVQF [ECM29] | 3.26 ± 0.15 | 3.42 ± 0.13 | – | –
11 | WVFSYLRWFELKPKLYY [SIR3] | 1.93 ± 0.081 | 1.96 ± 0.071 | 2.5 ± 0.19 | 2.49 ± 0.054
12 | YARADTHFLLNIYDQLR [RRP6] | 2.54 ± 0.045 | 2.34 ± 0.042 | 2.44 ± 0.05 | 2.58 ± 0.027
13 | YDKKKRVVVPQALRVLR [RPL16B] | 1.82 ± 0.043 | 2.09 ± 0.059 | 2.17 ± 0.084 | 1.82 ± 0.059
14 | YDTQLKVSPEELPLVIT [ARP7] | 2.6 ± 0.047 | 2.77 ± 0.062 | 2.59 ± 0.041 | 2.62 ± 0.042
15 | YEADQRKLFPNWIKPSD [PRP8] | 2.99 ± 0.092 | 2.86 ± 0.085 | 2.67 ± 0.11 | 2.96 ± 0.049
16 | YFKLSITSFDQDVDDAH [POP8] | 1.78 ± 0.05 | 1.95 ± 0.075 | 1.78 ± 0.095 | 2.25 ± 0.055
17 | YFLHLSVFNAELLKLLN [YCS4] | 1.26 ± 0.053 | 1.61 ± 0.058 | 1.8 ± 0.099 | 1.51 ± 0.053
18 | YFLKVTFLKYFGWLLSD [IRR1] | 1.75 ± 0.074 | 1.59 ± 0.054 | 1.88 ± 0.09 | 1.8 ± 0.062
19 | YFSNKTSTGIIRCHRED [POP5] | 2.98 ± 0.17 | 2.68 ± 0.1 | 2.62 ± 0.081 | 2.06 ± 0.059
20 | YFWHKIWRKVPGDVLDK [SNU114] | 1.15 ± 0.095 | 1.08 ± 0.064 | 1.51 ± 0.23 | 1.22 ± 0.094
21 | YGAYNTQIANAGASPMV [PRE4] | 2.16 ± 0.1 | 2.3 ± 0.096 | 1.92 ± 0.097 | 1.61 ± 0.063
22 | YGGSRCANCVKERIVRA [RPL34B] | 3.36 ± 0.21 | 3.38 ± 0.089 | 2.87 ± 0.076 | 3.15 ± 0.14
23 | YGHVFLGITGLATDVTT [PUP3] | 1.93 ± 0.13 | 2.24 ± 0.098 | 2.25 ± 0.15 | 2.29 ± 0.1
24 | YGIPLEFYNEMHRPVHF [PRP8] | 1.85 ± 0.074 | 2.04 ± 0.1 | 1.98 ± 0.14 | 2.64 ± 0.15
25 | YGKPTNQGVNELKYQRS [RPL15A] | 2.9 ± 0.16 | 3.23 ± 0.17 | 2.59 ± 0.14 | 3.03 ± 0.087

Row | Sequence | protein stability index (doa10∆) | protein stability index (pdr5∆) | protein stability index (san1∆) | protein stability index (ubr1∆)
26 | YGNDEEVLFYEDNYNPK [RPN4] | 3.11 ± 0.094 | 3.2 ± 0.12 | 3.12 ± 0.097 | 2.96 ± 0.074
27 | YGRQELADDLITKMLAS [RPN2] | – | 2.92 ± 0.29 | – | 3 ± 0.079
28 | YHGISKNDNIKKSVNKL [POP6] | 2.7 ± 0.064 | 2.75 ± 0.049 | 2.77 ± 0.05 | 2.85 ± 0.046
29 | YHQLLSDIESLEALMDI [SRB8] | 2.9 ± 0.13 | 2.84 ± 0.19 | – | 2.25 ± 0.2
30 | YIEASGREGIWSKTIKA [RPC34] | 1.78 ± 0.1 | 2.07 ± 0.16 | 2.3 ± 0.17 | 2.42 ± 0.1
31 | YIESKFCPGEIVGKSNV [YMR129W/POM152] | 2.86 ± 0.1 | 2.92 ± 0.1 | – | 2.65 ± 0.07
32 | YIKSATLYSVKSKEDMK [SNU114] | 3.22 ± 0.17 | 3.31 ± 0.13 | 3.18 ± 0.082 | 3.11 ± 0.087
33 | YINGKATALANLRKSRG [RPO31] | 3 ± 0.067 | 3.13 ± 0.075 | 2.81 ± 0.064 | 3 ± 0.067
34 | YINSDSVNPAMLPGSSN [RPO31] | 2.6 ± 0.1 | 2.74 ± 0.099 | 2.73 ± 0.15 | 2.83 ± 0.074
35 | YISNLLYGVTICYNKKT [REC8] | 1.22 ± 0.036 | 1.27 ± 0.048 | 1.3 ± 0.077 | 1.21 ± 0.03
36 | YIYSHVNKVPQNVAGDK [SWP82] | 2.79 ± 0.17 | 2.93 ± 0.079 | 2.96 ± 0.08 | 2.97 ± 0.071
37 | YKIPKVMKDIYKVENVT [ESC2] | – | 3.52 ± 0.16 | – | –
38 | YKRSIVRNYKPLINRLK [SWI1] | 2.4 ± 0.13 | 2.7 ± 0.1 | 1.65 ± 0.21 | 1.98 ± 0.15
39 | YKWTQGINNLSEIWDVS [PRP8] | 3.03 ± 0.1 | 2.9 ± 0.077 | 3.12 ± 0.099 | 2.44 ± 0.066
40 | YLACKVEECPQYIRTLV [SSN8] | 1.25 ± 0.14 | 1.27 ± 0.14 | 1.68 ± 0.16 | 1.96 ± 0.17
41 | YLAHEDNKEKDFELEIS [PRE10] | 2.84 ± 0.17 | 2.86 ± 0.12 | 3.23 ± 0.1 | 3.33 ± 0.072
42 | YLKHNSIAEEIPIAIVL [RET1] | 2.65 ± 0.052 | 2.18 ± 0.047 | 1.73 ± 0.085 | 2.16 ± 0.05
43 | YLSGAIPNQEVLQYSDW [YDL116W/NUP84] | 2.37 ± 0.12 | 1.83 ± 0.074 | 2.29 ± 0.051 | 2 ± 0.071
44 | YLTGGQQPTASDNIASL [SMD1] | 3 ± 0.21 | 2.57 ± 0.18 | 3.04 ± 0.099 | 2.61 ± 0.18
45 | YNALFQQNIKFRRDFLL [YJL039C/NUP192] | 2.38 ± 0.096 | 2.02 ± 0.063 | 2.4 ± 0.068 | 2.3 ± 0.055
46 | YNGFIDIFSNLSSDDLL [YCS4] | 3.16 ± 0.044 | 2.99 ± 0.066 | 3.28 ± 0.056 | 3.08 ± 0.037
47 | YNNKVGVAASQGSMSER [SIR2] | 1.79 ± 0.066 | 2.04 ± 0.063 | 2.49 ± 0.12 | 1.85 ± 0.064
48 | YNPKMIDDRDYVGNKRL [RET1] | – | – | – | 3.49 ± 0.26
49 | YNSVAEAKKFEPTYRLV [RPS24A] | 2.87 ± 0.14 | 2.95 ± 0.13 | 2.71 ± 0.18 | 2.74 ± 0.072
50 | YNTSILEFRWLTSSKSV [SIN4] | 1.79 ± 0.065 | 1.91 ± 0.081 | 1.96 ± 0.079 | 2.48 ± 0.1
